In publication PMC3086075:

What was measured:
Experiment in all cases: discontinuous malachite green phosphate-release assay, Michaelis-Menten fit
Format in all cases: biochemical, Pasteurella multocida
Conditions in all cases: 200 mM sodium acetate pH 5.5, 1 mM MgCl2, 37 °C, apparent Km
[1] = substrate: NC(=O)c1ccc[n+]([C@@H]2O[C@H](COP(=O)([O-])O)[C@@H](O)[C@H]2O)c1
[2] = substrate: Nc1ncnc2c1ncn2[C@@H]1O[C@H](CO)[C@@H](O)[C@H]1OP(=O)(O)O
[3] = substrate: Nc1ncnc2c1ncn2[C@@H]1O[C@H](CO)[C@@H](OP(=O)(O)O)[C@H]1O
[4] = substrate: Nc1ncnc2c1ncn2[C@@H]1O[C@H](COP(=O)(O)O)[C@@H](O)[C@H]1O
[5] = substrate: O=[N+]([O-])c1ccc(OP(=O)(O)O)cc1

B1: rPmCCAP (Pasteurella multocida) (protein)
chain: SNQQAVEQANQAKLQQQVAMGLIWTQQSGEYAALAHQAFNSAKMAFDHAKAKKGKKKAVVVDLDETMIDNSAYAGWQVQSGQGFSPKTWTKWVDARQSAAIPGAVEFSNYVNANGGTMFFVSNRRDDVEKAGTVDDMKRLGFTGVNDKTLLLKKDKSNKSVRFKQVEDMGYDIVLFVGDNLNDFGDATYKKSNAERRDFVAKNSKAFGKKFIVLPNTQYGDWEGGLDKNYFKGDSQSKLDVRAKAIHAWDGK
**Q.** What does the source list for B1?
**A.** Km [1]: 290 ± 60 µM; kcat [1]: 4.4 ± 0.3 s⁻¹; kcat/Km [1]: 15000 ± 3300 M⁻¹ s⁻¹; Km [2]: 1400 ± 300 µM; kcat [2]: 0.13 ± 0.01 s⁻¹; kcat/Km [2]: 90 ± 21 M⁻¹ s⁻¹; Km [3]: 800 ± 200 µM; kcat [3]: 0.19 ± 0.01 s⁻¹; kcat/Km [3]: 240 ± 61 M⁻¹ s⁻¹; Km [4]: 80 ± 10 µM; kcat [4]: 0.18 ± 0.01 s⁻¹; kcat/Km [4]: 2300 ± 310 M⁻¹ s⁻¹; Km [5]: 500 ± 100 µM; kcat [5]: 6.2 ± 0.5 s⁻¹; kcat/Km [5]: 12000 ± 2700 M⁻¹ s⁻¹
